{"source": "patent US20240409619A1", "target": "SARS-COV-2 spike protein, isolate USA-WA1/2020, on pseudotyped virus (SARS-COV-2) (UniProt P0DTC2)", "assay": "cell-based or functional assay", "data": [{"substance": "DMAb 2130_FcTM (antibody)", "values": [{"measurement": "serum potency (IC50) against USA-WA1/2020 pseudovirus", "result": "1 to 2", "unit": "ng/mL"}]}]}
